In article PMC9098913, “In vitro reconstitution of Escherichia coli divisome activation” (Nature Communications, 2022):
“And” between values parts separate entries of the source, which are not always exact repeats. Equal values may be shown once. Read-outs that look alike come from different tables or passages of the source.

Experiments:
[1] = system: FtsZ; conditions: for Pearson correlation coefficient (PCC) FtsA/FtsZ: 1.25 µM FtsZ;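 on PCC FtsA/FtsZ, mean of experiment (head 'Fig.1e PCC'; n and values fit Fig. 1f PCCdiff): pearson correlation of FtsA and FtsZ channels in dual-colour TIRF movies after subtracting consecutive frames to isolate growing filament ends, one frame per 2 s, ATP and GTP present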;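 on PCCdiff FtsA/FtsZ: pearson correlation of FtsA and FtsZ channels in dual-colour TIRF movies after subtracting consecutive frames to isolate growing filament ends, one frame per 2 s, ATP and GTP present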
Description: (§4) Additionally, the reaction chamber contained 4 mM ATP and 4 mM GTP, as well as a scavenging system to minimize photobleaching effects: 30 mM d-glucose, 0.050 mg ml^−1 Glucose Oxidase, 0.016 mg ml^−1 Catalase, 1 mM DTT and 1 mM Trolox. Prior addition of all components a corresponding buffer volume was removed from the chamber to obtain a total reaction volume of 100 µl. The dynamic protein pattern was monitored by time-lapse TIRF microscopy at one frame per 2 s and 50 ms exposure time.
Time-lapse videos were first intensity-corrected and contrast-enhanced to avoid bleaching effects and simplify subsequent analysis. To remove contributions of X–Y drift, the videos were processed with the Linear Stack Alignment with SIFT plugin. […] Subsequently, regions of interest (ROIs) in the center of the stacks were chosen for colocalization analysis. The Pearson’s correlation coefficient (PCC) was quantified with the Image CorrelationJ 1o plugin. To extract information about the relative ratio of FtsZ/FtsA molecules (slope of linear regression), we also used the Image CorrelationJ 1o plugin. As an output, the plugin provides a scatterplot of FtsZ vs FtsA intensities, to which we fitted a linear slope y=k⋅x+d , where k is the slope and d the offset. The slope was used as an estimate for the ratio of FtsA molecules below FtsZ filaments[42].

[2] = system: FtsA/Z co-filaments; type: biochemical, E. coli; conditions: Fig. 2g, mean
Description: By fitting an exponential function to the increase of the PCC with time, we were able to extract the corresponding recruitment rate (Fig. 2f, g).
Subsequently, the chamber was washed 6x with reaction buffer, to remove bulk peptide. To visualize colocalization with either FtsZ or FtsA, either a mix of FtsA and Alexa488-FtsZ or Cy3-FtsA and FtsZ was added. […] The time-lapse videos were recorded for 10 min after the addition, with one frame per 2 s.

[3] = system: FtsZ filaments; experiment: Slope of linear regression FtsZ vs FtsA intensity (packing of FtsA below FtsZ filaments); type: biochemical, E. coli
From the text: While fluorescence microscopy cannot resolve molecular assemblies of these small dimensions, a higher packing density of FtsA R286W below FtsZ filaments could explain the enhanced colocalization with FtsZ. To test this hypothesis, we analysed the pixel-by-pixel relationship between the fluorescence intensities of FtsZ and FtsA in dual-colour fluorescence time-lapse movies. […] At low FtsA concentrations, we found the slopes for both proteins to be similar.

[4] = Single-molecule diffusion coefficient of FtsA on the membrane; conditions: for Diffusion Coefficient: single-particle tracking, n = 3
Description: (§1) First, we studied the behaviour of single FtsA proteins on the membrane surface.
(§2) After 5 min of incubation, single molecule time lapses were acquired every 125, 250, 500, and 1000 and 2000 ms, with an exposure time of 50 ms. Subsequently, the bulk concentration of FtsA was increased to 0.2/0.4/0.8 µM and time lapses were repeated as described above.
(§3) Single molecules of FtsA or FtsZ were tracked using the TrackMate plugin from ImageJ[43]. To obtain the residence time of FtsZ and FtsA, we performed a residence time analysis as described before[40],[47]. Shortly, single molecules were imaged at different acquisition rates (0.1–2 s) and the lifetime of the molecules was extracted from each data set. To account for photobleaching effect, the obtained lifetimes were plotted against the acquisition rate. […] Furthermore, we extracted the diffusion coefficient of FtsA single molecules at increasing concentrations. For this, we filtered the obtained data, by considering only trajectories which are present on the membrane for more than 0.4 s. […] Subsequently, the diffusion coefficient of FtsA molecules was estimated by fitting an MSD curve to each individual trajectory.

[5] = Single-molecule membrane residence time of FtsA; type: binding; design: Single Molecule Lifetime: unit not given here; conditions: for Single Molecule Lifetime, mean: mean of Exp. 1-3, n = 3, Fig. 3b
Description: as §1, §2, §3

[6] = system: FtsZ; conditions: for PCCdiff FtsA/FtsZ: 1.25 µM FtsZ, mean ± s.d.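 On PCC FtsA/FtsZ, mean of experiment (head 'Fig.1e PCC'; n and values fit Fig. 1f PCCdiff): pearson correlation of FtsA and FtsZ channels in dual-colour TIRF movies after subtracting consecutive frames to isolate growing filament ends, one frame per 2 s, ATP and GTP present.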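 On PCCdiff FtsA/FtsZ: pearson correlation of FtsA and FtsZ channels in dual-colour TIRF movies after subtracting consecutive frames to isolate growing filament ends, one frame per 2 s, ATP and GTP present.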
From the text: For this aim, we prepared differential time lapse movies[24], where we subtract the intensities of consecutive frames to selectively visualize the growing ends of filament bundles (Fig. 1d). We then calculated the Pearson correlation coefficient between the two channels of the differential movies (PCCdiff), which quantifies the covariation of the fluorescence signals for FtsA and FtsZ at the growing end of a filament bundle with a time resolution of the acquisition rate[4],[23],[24].
as §4
Treadmilling dynamics, were quantified using an automated image analysis protocol previously developed by our group[24]. To visualize colocalization of the co-treadmilling FtsZ & FtsA filaments, we used dual-colour videos obtained at an acquisition rate of one frame per 2 s. The two channels were aligned using FIJI’s 3TP align plugin. Both channels were then subjected to the image subtraction protocol and colocalization was measured as described above.

B1: FtsA R286W (protein)
chain: MIKATDRKLVVGLEIGTAKVAALVGEVLPDGMVNIIGVGSCPSRGMDKGGVNDLESVVKCVQRAIDQAELMADCQISSVYLALSGKHISCQNEIGMVPISEEEVTQEDVENVVHTAKSVRVRDEHRVLHVIPQEYAIDYQEGIKNPVGLSGVRMQAKVHLITCHNDMAKNIVKAVERCGLKVDQLIFAGLASSYSVLTEDERELGVCVVDIGGGTMDIAVYTGGALRHTKVIPYAGNVVTSDIAYAFGTPPSDAEAIKVRHGCALGSIVGKDESVEVPSVGGRPPWSLQRQTLAEVIEPRYTELLNLVNEEILQLQEKLRQQGVKHHLAAGIVLTGGAAQIEGLAACAQRVFHTQVRIGAPLNITGLTDYAQEPYYSTAVGLLHYGKESHLNGEAEVEKRVTASVGSWIKRLNSWLRKEF
modifications: Cy3 or Cy5 at the N-terminus in the labelled form (labelled CLEPTGG peptide conjugated to the 5xGly tag by sortagging); unlabelled protein also used; left off: TwinStrep-SUMO, N-terminal, cleaved | 5x
PCC FtsZ/FtsA ([1]; 0.1µM FtsA, Exp. 2): 0.41
PCC FtsZ/FtsA ([1]; 0.1µM FtsA, replicate 1 (row printed 'goo')): 0.73
PCC FtsZ/FtsA ([1]; 0.2µM FtsA, Exp. 2): 0.77
PCC FtsZ/FtsA ([1]; 0.2µM FtsA, replicate 1 (row printed 'goo')): 0.89
Pearson correlation coefficient (PCC) FtsA/FtsZ ([1]; 0.4 µM FtsA, mean ± s.d., WT vs R286W p-value 1.28 × 10^−5): 0.84 ± 0.05
PCC FtsZ/FtsA ([1]; 0.4µM FtsA, Exp. 2): 0.83
PCC FtsZ/FtsA ([1]; 0.4µM FtsA, replicate 1 (row printed 'goo')): 0.89
PCC FtsZ/FtsA ([1]; 0.8µM FtsA, Exp. 2): 0.83
PCC FtsZ/FtsA ([1]; 0.8µM FtsA, replicate 1 (row printed 'goo')): 0.88
Pearson correlation coefficient (PCC) FtsA/FtsZ ([1]; all concentrations tested (0.1–0.8 µM)): around 0.8
Recruitment rate of FtsN to FtsZ filaments ([2]; Concentration 0.10 µM): 2.71
Recruitment rate of FtsN to FtsZ filaments ([2]; Concentration 0.20 µM): 3.32
Recruitment rate of FtsN to FtsZ filaments ([2]; Concentration 0.40 µM): 2.53
Recruitment rate of FtsN to FtsZ filaments ([2]; Concentration 0.80 µM): 2.36
Slope of linear regression FtsZ vs FtsA ([3]; 0.1 µM FtsA, mean): 0.43
Slope of linear regression, mean of single experiment ([3]; 0.1µM, replicate column 1): 0.46
Slope of linear regression, mean of single experiment ([3]; 0.1µM, replicate column 2): 0.49
Slope of linear regression, mean of single experiment ([3]; 0.1µM, replicate column 3): 0.39
Slope of linear regression FtsZ vs FtsA ([3]; 0.2 µM FtsA, mean): 0.60
Slope of linear regression, mean of single experiment ([3]; 0.2µM, replicate column 1): 0.53
Slope of linear regression, mean of single experiment ([3]; 0.2µM, replicate column 2): 0.81
Slope of linear regression, mean of single experiment ([3]; 0.2µM, replicate column 3): 0.58
Slope of linear regression, mean of single experiment ([3]; 0.4µM, replicate column 1): 0.63
Slope of linear regression FtsZ vs FtsA ([3]; 0.8 µM FtsA, mean): 0.72
Slope of linear regression FtsZ vs FtsA ([3]; above 0.2 µM, remained constant): ~ 0.7
Single Molecule Diffusion Constant ([4]; 0.1 µM FtsA, Exp. 1): 0.4979 µm2/s
Single Molecule Diffusion Constant ([4]; 0.1µM FtsA, Exp. 2): 0.3931 µm2/s
Single Molecule Diffusion Constant ([4]; 0.1 µM FtsA, Exp. 3): 0.3496 µm2/s
Diffusion Coefficient ([4]; 0.1 µM FtsA): 0.42 ± 0.06 µm^2/s
Single Molecule Diffusion Constant ([4]; 0.2 µM FtsA, Exp. 1): 0.1893 µm2/s
Single Molecule Diffusion Constant ([4]; 0.2µM FtsA, Exp. 2): 0.1662 µm2/s
Single Molecule Diffusion Constant ([4]; 0.2 µM FtsA, Exp. 3): 0.2033 µm2/s
Single Molecule Diffusion Constant ([4]; 0.4 µM FtsA, Exp. 1): 0.1363 µm2/s
Single Molecule Diffusion Constant ([4]; 0.4µM FtsA, Exp. 2): 0.0718 µm2/s
Single Molecule Diffusion Constant ([4]; 0.4 µM FtsA, Exp. 3): 0.1951 µm2/s
Single Molecule Diffusion Constant ([4]; 0.8 µM FtsA, Exp. 1): 0.0600 µm2/s
Single Molecule Diffusion Constant ([4]; 0.8µM FtsA, Exp. 2): 0.0636 µm2/s
Single Molecule Diffusion Constant ([4]; 0.8 µM FtsA, Exp. 3): 0.0391 µm2/s
Single Molecule Diffusion Constant, mean ([4]; 0.8 µM FtsA, mean of Exp. 1-3, n = 3, Fig. 3b): 0.054 µm2/s and 0.0542 µm2/s
Diffusion Coefficient ([4]; 0.8 µM FtsA): 0.05 ± 0.01 µm^2/s
Single Molecule Lifetime ([5]; 0.1 µM FtsA, Exp. 1): 1.99
Single Molecule Lifetime ([5]; 0.1µM FtsA, Exp. 2): 2.89
Single Molecule Lifetime ([5]; 0.1 µM FtsA, Exp. 3): 3.02
Single Molecule Lifetime, mean ([5]; 0.1 µM FtsA): 2.63
Single Molecule Lifetime ([5]; 0.2 µM FtsA, Exp. 1): 3.32
Single Molecule Lifetime ([5]; 0.2µM FtsA, Exp. 2): 7.68
Single Molecule Lifetime ([5]; 0.2 µM FtsA, Exp. 3): 10.90
Single Molecule Lifetime, mean ([5]; 0.2 µM FtsA): 7.30
Single Molecule Lifetime ([5]; 0.4 µM FtsA, Exp. 1): 8.16
Single Molecule Lifetime ([5]; 0.4µM FtsA, Exp. 2): 11.60
Single Molecule Lifetime ([5]; 0.4 µM FtsA, Exp. 3): 5.33
Single Molecule Lifetime, mean ([5]; 0.4 µM FtsA): 8.36
Single Molecule Lifetime ([5]; 0.8 µM FtsA, Exp. 1): 15.60
Single Molecule Lifetime ([5]; 0.8µM FtsA, Exp. 2): 10.90
Single Molecule Lifetime ([5]; 0.8 µM FtsA, Exp. 3): 15.80
Single Molecule Lifetime, mean ([5]; 0.8 µM FtsA): 14.10
PCC FtsA/FtsZ, mean of experiment (head 'Fig.1e_PCC'; n and values fit Fig. 1f PCCdiff) ([6]; 0.1µM FtsAs, replicate column 1): 0.68
PCC FtsA/FtsZ, mean of experiment (head 'Fig.1e_PCC'; n and values fit Fig. 1f PCCdiff) ([6]; 0.1µM FtsAs, replicate column 2): 0.67
PCC FtsA/FtsZ, mean of experiment (head 'Fig.1e_PCC'; n and values fit Fig. 1f PCCdiff) ([6]; 0.1µM FtsAs, replicate column 3): 0.48
PCC FtsA/FtsZ, mean of experiment (head 'Fig.1e_PCC'; n and values fit Fig. 1f PCCdiff) ([6]; 0.2µM FtsAs, replicate column 1): 0.74
PCC FtsA/FtsZ, mean of experiment (head 'Fig.1e_PCC'; n and values fit Fig. 1f PCCdiff) ([6]; 0.2µM FtsAs, replicate column 2): 0.79
PCC FtsA/FtsZ, mean of experiment (head 'Fig.1e_PCC'; n and values fit Fig. 1f PCCdiff) ([6]; 0.2µM FtsAs, replicate column 3): 0.75
PCC FtsA/FtsZ, mean of experiment (head 'Fig.1e_PCC'; n and values fit Fig. 1f PCCdiff) ([6]; 0.2µM FtsAs, replicate column 4): 0.76
PCC FtsA/FtsZ, mean of experiment (head 'Fig.1e_PCC'; n and values fit Fig. 1f PCCdiff) ([6]; 0.2µM FtsAs, replicate column 5): 0.68
PCCdiff FtsA/FtsZ ([6]; 0.4 µM FtsA, p-value 1.82 × 10^−4): 0.76 ± 0.04
PCC FtsA/FtsZ, mean of experiment (head 'Fig.1e_PCC'; n and values fit Fig. 1f PCCdiff) ([6]; 0.4µM FtsAs, replicate column 1): 0.72
PCC FtsA/FtsZ, mean of experiment (head 'Fig.1e_PCC'; n and values fit Fig. 1f PCCdiff) ([6]; 0.4µM FtsAs, replicate column 2): 0.78
PCC FtsA/FtsZ, mean of experiment (head 'Fig.1e_PCC'; n and values fit Fig. 1f PCCdiff) ([6]; 0.4µM FtsAs, replicate column 3): 0.82
PCC FtsA/FtsZ, mean of experiment (head 'Fig.1e_PCC'; n and values fit Fig. 1f PCCdiff) ([6]; 0.4µM FtsAs, replicate column 4): 0.72
PCCdiff FtsA/FtsZ ([6]; 0.8 µM FtsA R286W): 0.76 ± 0.05
PCC FtsA/FtsZ, mean of experiment (head 'Fig.1e_PCC'; n and values fit Fig. 1f PCCdiff) ([6]; 0.8µM FtsAs, replicate column 1): 0.79
PCC FtsA/FtsZ, mean of experiment (head 'Fig.1e_PCC'; n and values fit Fig. 1f PCCdiff) ([6]; 0.8µM FtsAs, replicate column 2): 0.82
PCC FtsA/FtsZ, mean of experiment (head 'Fig.1e_PCC'; n and values fit Fig. 1f PCCdiff) ([6]; 0.8µM FtsAs, replicate column 3): 0.76
PCC FtsA/FtsZ, mean of experiment (head 'Fig.1e_PCC'; n and values fit Fig. 1f PCCdiff) ([6]; 0.8µM FtsAs, replicate column 4): 0.69
